Data on one molecule can be found in patent US20250101083A1 (XIAMEN UNIVERSITY, published 2025).

The target in assay [1] is T1, pTT5hIgG1-S4 fusion protein (hepatitis B virus (HBV subtype B)).
T1 construct: also called S4 (Cter); Cter
Description: ELISA, fusion protein coated at 1 µg/mL, antibody at 1 µg/ml.

Assay [2] has as its target T2, pTT5hIgG1-S5 fusion protein (hepatitis B virus (HBV subtype B)).
T2 construct: also called S5 (Loop2-Cter); Loop2-Cter
The description is as above.

B1: 125smIgG2 (Fc fusion)
chain: QLQLVESGGGLVQAGGSLRLSCAASGGTISAYAMGWFRQAPGKDREFVAGISWTTSSAYYTDSVKGRFTISRDFAKNTVYLQMNSLKPEDTAVYYCNDRVSDTVGFGSWGQGTQVTVSSPRVPITQNPCPPLKECPPCAAPDLLGGPSVFIFPPKIKDVLMISLSPMVTCVVVDVSEDDPDVQISWFVNNVEVHTAQTQTHREDYNSTLRVVSALPIQHQDWMSGKEFKCKVNNRALPSPIEKTISKPRGPVRAPQVYVLPPPAEEMTKKEFSLTCMITGFLPAEIAVDWTSNGRTEQNYKNTATVLDSDGSYFMYSKLRVQKSTWERGSLFACSVVHEGLHNHLTTKTISRSLGK
In the case of B1, the binding result in assay [1] and in assay [2] was “binds” in each case.
